What was measured:
[1] = target: canonical S. cerevisiae nucleosome (two H2A–H2B dimers) on Widom 601 DNA (S. cerevisiae) (UniProt P04911); test: single-molecule fluorescence colocalisation; surface-immobilised 113N2.AF488 nucleosome; 5 nM SWR1(647N) with 1 mM ATP injected; 25 mM Tris-HCl pH 7.8, 100 mM KCl, 4% glycerol, 1 mM EDTA, 2 mM MgCl2, 0.2 mg/ml BSA; 22 °C; time to bind and bound lifetime from tMAVEN
[2] = target: heterotypic S. cerevisiae nucleosome (one Htz1–H2B dimer and one H2A–H2B dimer) (S. cerevisiae) (UniProt P04911); test: FRET or BRET; single-molecule FRET (prism-TIRF); biotinylated nucleosome or hexasome with Cy3 on the 2-bp DNA overhang immobilised via neutravidin; 10 nM SWR1(647N) injected; 25 mM Tris-HCl pH 7.8, 100 mM KCl, 4% glycerol, 1 mM EDTA, 2 mM MgCl2, 0.2 mg/ml BSA; room temperature; 100-ms frames

lifetime of the bound complex (stably bound species) [1]: 19 min
time to bind [1]: 6.58 min
dwell time on the Htz1–H2B face (single fast exponential decay) [2]: 0.63 s
Substance: SWR1(Atto647N–Arp6) (from UniProt Q05471 1-1514; Q12509 1-438; Q03433 1-280; Q03388 1-795; Q03940 1-463; Q12464 1-471; P38326 1-303) (complex)

— article PMC11618073
